Consider 167 variants from the RNAGym collection of RNA variant scans (doi:10.1073/pnas.2313332121).

B1: TPR t1 (parent)
chain: GACCAAUCUGCCCUCAGAGCUCGAGAACAUCUUCGGAUGCAGAGGAGGCAGGCUUCGGUGGCGCGAUAGCGCCAACGUCCUCAACCUCCAAUGCAUCCCACCACAUGAUGAUGCCUGAAGAGCCUUGGUUUUUUG

The variants in the series derive from B1. The experiment in a line: polymerase ribozyme fitness, log enrichment relative to wild type (log ratio); higher = more active; in vitro selection for triplet polymerase activity. A digest of the protocol: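 Each subunit of a heterodimeric triplet polymerase ribozyme was represented by a PCR-built, transcribed mutant library that underwent triplicate single-round in vitro selection with frozen incubation at −7 °C. Extended constructs were recovered by gel excision, streptavidin-bead capture and RT-PCR, and Illumina sequencing of input and output libraries kept genotypes with ≥10 input reads and ≥1 read per output. Fitness is the logarithm of genotype enrichment relative to wild-type enrichment, from inverse-variance-weighted replicate averages, with a logarithm base of 2.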
For C11G U14G C15U A46C C73G C82A, the “polymerase ribozyme fitness (log ratio)” value is -4.14. As to C11A U38G G48C C115G G122U, the “polymerase ribozyme fitness (log ratio)” value was -2.9. As to C11G A37C C53U, the “polymerase ribozyme fitness (log ratio)” value was determined as 0.228. C11G C114U C124G: the “polymerase ribozyme fitness (log ratio)” value is -2.07. The value for C11G G36A C70A was -1.16. The value for C11A C64U U106A A108U was -3.91; that for C11G C20G A24G U116C was -6.56. To C11G C53G belongs -1.43; to C11A U33G U54A C70U A95C U112A, -6.99. In the case of C11G C22U G61A A66C, the “polymerase ribozyme fitness (log ratio)” value is -3.92. The value for C11G G44A U125G was -0.96; that for C11G C40U C53U A68G U87A A90U U112A G127C was -6.81. The value for C11A U21A A50C was -1.95. The value for C11G C15A A95U U130A was -2.76; that for C11G A29U G117C was -3.19. Consider C11G C53G C70U U96G A105C U112G, for which the “polymerase ribozyme fitness (log ratio)” value was -7.25. To C11A C89A G93A A118G belongs -3.96.

Regarding C11G G44C C79G, the “polymerase ribozyme fitness (log ratio)” value was -2.6. To C11G G52C G117A belongs -1.05; to C11A C82G C101A A121C, -0.28. To C11G C70U G122U belongs -0.676. As for C11A U54A C123A, the “polymerase ribozyme fitness (log ratio)” value is 0.93.

As to C11A C124A, the “polymerase ribozyme fitness (log ratio)” value was found to be 1.26. On to C11A G69A C82U, for which the “polymerase ribozyme fitness (log ratio)” value is -3.91. The value for C11A G60A C101A C124G was 0.624. The value for C11G C12A U38G G71A U106C G113A was -3.24. To C11G G39A belongs 0.759; to C11G C53A G61C, -4.59. With C11A U96A G113C, the “polymerase ribozyme fitness (log ratio)” value is -5.3. To C11G C12U C53U U54A C86U A90G U96A C101U belongs -2.39; to C11G A27U G36A G58A, -3.1. To C11A G47A C102A belongs -4.79. To C11G A108C belongs -4.07. In the case of C11G C49G A90U C124G U129C, the “polymerase ribozyme fitness (log ratio)” value was -2.5.

With C11A G58C, the “polymerase ribozyme fitness (log ratio)” value was -2.25. The value for C11A U33G was -6.86. To C11G G39A G61A belongs -0.302; to C11G C34A G122A C123A, -1.19; to C11G A16U G47C G60A, -3.03. To C11G C76U U78A belongs 0.137.

In the case of C11G G17A G71U U81A C85U G117C, the “polymerase ribozyme fitness (log ratio)” value was -6.69. The value for C11A C56A C89U was -1.96; that for C11G G44A was -0.407. To C11A U33G G52U C56U C64G G120C belongs -6.81; to C11A G93U, -1.93. To C11A C76A belongs -2.77; to C11G A43C C62U U129C U130G, -3.83; to C11G A41U G69C U81C, -4.06. Consider C11G A29C C49A G117A G120A, for which the “polymerase ribozyme fitness (log ratio)” value is -3.48. Take C11G C12U U21G A37U: the “polymerase ribozyme fitness (log ratio)” value is -2.2. The value for C11G G113U was -2.12.

For C11G G113C, the “polymerase ribozyme fitness (log ratio)” value is -1.3.

In the case of C11G G47A C88A G127C, the “polymerase ribozyme fitness (log ratio)” value is -2.42.

With C11G G36C G44C U78A U87G, the “polymerase ribozyme fitness (log ratio)” value was -1.77. To C11A G48U U96G U112C belongs -1.36. Turning to C11G C76A C79U A90U A119C G120U, the “polymerase ribozyme fitness (log ratio)” value was -0.651. To C11G C49U belongs 0.783; to C11G C49A, 0.121.

For C11G C15A A29U G45C G77A G120A G128U, the “polymerase ribozyme fitness (log ratio)” value is -5.34. The value for C11G G35A G69C C98U was -1.46.

On to C11G G93C C97G U106A G120C, for which the “polymerase ribozyme fitness (log ratio)” value is -3.9. On to C11G G19A C53U C62U A111G, for which the “polymerase ribozyme fitness (log ratio)” value is -1. To C11A C73G belongs -1.79. To C11A G17A belongs -6.16; to C11A G17C, -4.25; to C11G C86U, -0.354. To C11G C15G A90C G110A belongs -4.74. Turning to C11G C88A C102A, the “polymerase ribozyme fitness (log ratio)” value is -1.55. To C11G A16U A24G G47C G63U A111C belongs -7.31; to C11A U21C U112G, -0.593. As for C11G U14A G19U U55G U92G A121G, the “polymerase ribozyme fitness (log ratio)” value was -3.45. The value for C11G C64U G117C was -1.98; that for C11A G60U U87C U112C G117A U130C was -5.25; that for C11G G36A G127A was -2.95. To C11G A24G C40U G120U U132G belongs -2.9; to C11G C79G C82A, -1.78; to C11A G42U, -2.71. To C11G C64U A84U belongs -0.0856; to C11A C72A A91G C101U G113C U132C, -4.14; to C11G C97A, -4.05.

For C11A U30C U81A C104G A111U A119G U132C, the “polymerase ribozyme fitness (log ratio)” value was -6.53. The value for C11G A111U was -2.19; that for C11G A111G was 1.17. For the variant C11G A41C U87A U92G, the “polymerase ribozyme fitness (log ratio)” value was -1.84. Regarding C11G G35A G60C C98U, the “polymerase ribozyme fitness (log ratio)” value was -1.01. The value for C11A C80G C88U was -6.42; that for C11G C82A was -0.254; that for C11A G61C A100C A121U was -1.61. To C11G A46C belongs -1.01; to C11A G60U C97A C123U, -2.32. The value for C11G C40A C99U was -4.65. Regarding C11A G113U, the “polymerase ribozyme fitness (log ratio)” value is -3.17. To C11G C15A G61A U125G belongs -0.186; to C11G G135U, -0.0424. In the case of C11G G128A, the “polymerase ribozyme fitness (log ratio)” value is -1.59. To C11G C94U C104G G113A belongs -5.51; to C11G C88A, -0.146; to C11A G113C G135U, -4.88. Consider C11G C56U A111U, for which the “polymerase ribozyme fitness (log ratio)” value is -2.23. Consider C11A G57U G93U, for which the “polymerase ribozyme fitness (log ratio)” value is -3.77. For C11G A37U C72G A111C U129A U132C, the “polymerase ribozyme fitness (log ratio)” value was -0.79. To C11A C98U U125A belongs -2.97; to C11A C89A A111U G122A, -5.04; to C11A G17U C115G C123G U126C, -3.25. C11G C12G C56A A118G: the “polymerase ribozyme fitness (log ratio)” value was -0.95. The value for C11A U30C G63U C64U U81A C104G A111U A119G U132C was -6.95; that for C11G C70A was -0.991. The value for C11G C70G was -2.08; that for C11A G47A was -3.21; that for C11G G17A C72A C124U was -3.65. The value for C11G A16C A29G G45U was -4.19; that for C11A C115U was -2.42; that for C11A C89U was -2.53.

For the variant C11G C12U G42C G69C C115G, the “polymerase ribozyme fitness (log ratio)” value is -6.44. With C11G C15A A37U C99U A111C U112C, the “polymerase ribozyme fitness (log ratio)” value was -4.47.

For the variant C11G C15G G36U A74C G117C, the “polymerase ribozyme fitness (log ratio)” value amounted to 0.809.

For C11A C72U U78C C82G C101A A121C, the “polymerase ribozyme fitness (log ratio)” value is -0.882. Regarding C11A G39A A105C, the “polymerase ribozyme fitness (log ratio)” value was -3.91. The value for C11G G44A C56G C82G C88U was -2.81.

On to C11G C56A, for which the “polymerase ribozyme fitness (log ratio)” value was -0.185. In the case of C11G G17C C53U C79U U129G, the “polymerase ribozyme fitness (log ratio)” value was -3.84. The value for C11G A27U C49A G61A A84G was -4.25. The value for C11G U21A was -0.298; that for C11A G39A A43U U59C A91C G113A A118G C124G U125A was -4.98; that for C11G C12G C49U U55G A91G was -2.61.

Regarding C11G G93U, the “polymerase ribozyme fitness (log ratio)” value came out at 0.289. To C11A C82A belongs -2.13; to C11G U14C A41G C56G, -0.436; to C11G C76G, -0.0651. To C11G G36A G63C belongs -1.16. To C11A G113A C114U U133G belongs -5; to C11G C79A G120C, 1.11. With C11G G35A C73G U81G U109A, the “polymerase ribozyme fitness (log ratio)” value was -6.69. To C11G C13U C70G C97A A103C C123U belongs -7.22; to C11A G61A C80U C98U A100U, -4.96. To C11G C22U G36A belongs -4.08. To C11G A29U G57A G60A C98U belongs -4.69.

C11G A50G C62U G110C: the “polymerase ribozyme fitness (log ratio)” value is -4.81. C11A G71U A91G A121U: the “polymerase ribozyme fitness (log ratio)” value was 0.632. On to C11A G71C, for which the “polymerase ribozyme fitness (log ratio)” value is -2.37.

For the variant C11G C22U G61C A83G, the “polymerase ribozyme fitness (log ratio)” value is -6.84. In the case of C11A G42C A118G, the “polymerase ribozyme fitness (log ratio)” value is -3.71. Turning to C11G G110C, the “polymerase ribozyme fitness (log ratio)” value was -3.47. The value for C11G G110A was -1.04.

Take C11G G110U: the “polymerase ribozyme fitness (log ratio)” value was -0.409.

For C11G A18U C40U C82U C99A U109G, the “polymerase ribozyme fitness (log ratio)” value was -5.71. For the variant C11G G45A G52U C101A U106A A121U, the “polymerase ribozyme fitness (log ratio)” value was 0.469. To C11G G107A belongs -4.44; to C11G G51C A84G U131C, -3.58; to C11G C85G G117A, -1.6. As to C11A G39U, the “polymerase ribozyme fitness (log ratio)” value was -1.81. The value for C11G G19C G60A C123A U129C was -2.66; that for C11A G17U U112A U131G was -3.56; that for C11G G60C was -0.354. To C11G G60A belongs 0.811. The value for C11G G60U was 0.25. With C11G C28G C86A C123U, the “polymerase ribozyme fitness (log ratio)” value is -1.94.

Regarding C11A G45U G63U, the “polymerase ribozyme fitness (log ratio)” value is -3.75.

Consider C11A U54G, for which the “polymerase ribozyme fitness (log ratio)” value is -2.05. C11G G77U: the “polymerase ribozyme fitness (log ratio)” value amounted to 0.134. Regarding C11A G122U, the “polymerase ribozyme fitness (log ratio)” value came to 0.0729. The value for C11G C20U G69U A84U C85U G122A U126G G128U was -2.39; that for C11G A41G was 0.309; that for C11G A46G C79U C82U C98U A118U was -0.917. To C11G C64U C98G U106C belongs -6.08; to C11G G19U G36U A41U C53U C56A G93C C114A C124U U130A, -6.06. As to C11G G48A C82U G122U, the “polymerase ribozyme fitness (log ratio)” value was found to be 0.0866.
